What was measured:
[1] = system: PRE 5′-AGAACAnnnTGTTCT-3′; test: luciferase reporter bearing a single PRE, COS-1 cells; type: cell-based, African green monkey; conditions: PR with 10^−8 M Progesterone
Experimental: (§1) An ERE drives the expression of the firefly luciferase cDNA as the reporter enzyme from the TATA box promoter. […] The reporter vector contains no (TATA) or two ERE half sites with 0, 1, 2, 3, 4, 5, 10 or 15 non-specific central nucleotides. FIGS. 4C and 4D show COS-1 cells were transfected with expression vectors bearing none (V), RXRα (Panel C) PR (Panel D), ERα, (VP16)2-CDC-(p65)2 or (p65)2-CDC-(VP16)2 cDNA. Cells were treated with 10^−6 M 9-cis-retinoic acid for RXRα, 10^−8 M Progesterone for PR or 10^−9 M E2 for ERα for 24 h. The TATA box reporter vector bears one consensus RXRE 5′-AGGTCAnAGGTCA-′3 (Panel C) or PRE 5′-AGAACAnnnTGTTCT-3′ (panel D) that drives the expression of the reporter firefly luciferase cDNA. Normalized luciferase values represented as fold change are the mean±SEM of three independent experiments performed in duplicate.
(§2) Culturing and transfection of the mammalian COS-1 and […] MDA-MB-231 cells were described previously (Muyan, M. et al. (2001) Mol Cell Endocrinol 182,249-263; Yi, P. et al. (2002) Mol Endocrinol 16, 1810-1827), with the exceptions that 48 well cell culture plates were used and Trans-IT LTI transfection reagent (Mirus Corp., Madison, Wis.). Luciferase assays were performed with a Dual Luciferase Assay kit (Promega) according to the manufacture's recornmendations. […]

[2] = system: consensus RXRE 5′-AGGTCAnAGGTCA-3′; test: luciferase reporter bearing one RXRE, COS-1 cells; type: cell-based, African green monkey; conditions: RXRα with 10^−6 M 9-cis retinoic acid
Experimental: as §1, §2

Row | Molecule | reporter enzyme activity from a single PRE [1] | luciferase activity from a reporter plasmid bearing one RXRE [2]
1 | Progesterone Receptor (protein, UniProt P06401 1-933, looked up, expressed from vector, treated with Progesterone) Progesterone receptor: MTELKAKGPRAPHVAGGPPSPEVGSPLLCRPAAGPFPGSQTSDTLPEVSAIPISLDGLLFPRPCQGQDPSDEKTQDQQSLSDVEGAYSRAEATRGAGGSSSSPPEKDSGLLDSVLDTLLAPSGPGQSQPSPPACEVTSSWCLFGPELPEDPPAAPATQRVLSPLMSRSGCKVGDSSGTAAAHKVLPRGLSPARQLLLPASESPHWSGAPVKPSPQAAAVEVEEEDGSESEESAGPLLKGKPRALGGAAAGGGAAAVPPGAAAGGVALVPKEDSRFSAPRVALVEQDAPMAPGRSPLATTVMDFIHVPILPLNHALLAARTRQLLEDESYDGGAGAASAFAPPRSSPCASSTPVAVGDFPDCAYPPDAEPKDDAYPLYSDFQPPALKIKEEEEGAEASARSPRSYLVAGANPAAFPDFPLGPPPPLPPRATPSRPGEAAVTAAPASASVSSASSSGSTLECILYKAEGAPPQQGPFAPPPCKAPGASGCLLPRDGLPSTSASAAAAGAAPALYPALGLNGLPQLGYQAAVLKEGLPQVYPPYLNYLRPDSEASQSPQYSFESLPQKICLICGDEASGCHYGVLTCGSCKVFFKRAMEGQHNYLCAGRNDCIVDKIRRKNCPACRLRKCCQAGMVLGGRKFKKFNKVRVVRALDAVALPQPVGVPNESQALSQRFTFSPGQDIQLIPPLINLLMSIEPDVIYAGHDNTKPDTSSSLLTSLNQLGERQLLSVVKWSKSLPGFRNLHIDDQITLIQYSWMSLMVFGLGWRSYKHVSGQMLYFAPDLILNEQRMKESSFYSLCLTMWQIPQEFVKLQVSQEEFLCMKVLLLLNTIPLEGLRSQTQFEEMRSSYIRELIKAIGLRQKGVVSSSQRFYQLTKLLDNLHDLVKQLHLYCLNTFIQSRALSVEFPEMMSEVIAAQLPKILAGMVKPLLFHKK | enhanced the reporter enzyme activity | –
2 | Retinoic X Receptor α (protein, UniProt P19793 1-462, looked up, treated with 9-cis retinoic acid, expressed from vector, treated with 9-cis retinoic acid) Retinoic acid receptor …: MDTKHFLPLDFSTQVNSSLTSPTGRGSMAAPSLHPSLGPGIGSPGQLHSPISTLSSPINGMGPPFSVISSPMGPHSMSVPTTPTLGFSTGSPQLSSPMNPVSSSEDIKPPLGLNGVLKVPAHPSGNMASFTKHICAICGDRSSGKHYGVYSCEGCKGFFKRTVRKDLTYTCRDNKDCLIDKRQRNRCQYCRYQKCLAMGMKREAVQEERQRGKDRNENEVESTSSANEDMPVERILEAELAVEPKTETYVEANMGLNPSSPNDPVTNICQAADKQLFTLVEWAKRIPHFSELPLDDQVILLRAGWNELLIASFSHRSIAVKDGILLATGLHVHRNSAHSAGVGAIFDRVLTELVSKMRDMQMDKTELGCLRAIVLFNPDSKGLSNPAEVEALREKVYASLEAYCKHKYPEQPGRFAKLLLRLPALRSIGLKCLEHLFFFKLIGDTPIDTFLMEMLEAPHQMT | – | augmented the enzyme activity
